The chains are these.
B1: Cdc31 (natural protein, S. cerevisiae, UniProt P06704 1-161, looked up)
chain: MSKNRSSLQSGPLNSELLEEQKQEIYEAFSLFDMNNDGFLDYHELKVAMKALGFELPKREILDLIDEYDSEGRHLMKYDDFYIVMGEKILKRDPLDEIKRAFQLFDDDHTGKISIKNLRRVAKELGETLTDEELRAMIEEFDLDGDGEINENEFIAICTDS
notes: Cdc31, S. cerevisiae; source: Sf9, baculovirus, co-expressed with GST-Sac3; in lysate and purified with the complex (glutathione Sepharose, heparin, SEC)
B2: Sus1 (natural protein, S. cerevisiae, UniProt Q6WNK7 1-96, looked up)
chain: MTMDTAQLKSQIQQYLVESGNYELISNELKARLLQEGWVDKVKDLTKSEMNINESTNFTQILSTVEPKALEMVSDSTRETVLKQIREFLEEIVDTQ
notes: Sus1, S. cerevisiae; source: Sf9, baculovirus, co-expressed with GST-Sac3; in lysate and purified with the complex (glutathione Sepharose, heparin, SEC)
B3: Sem1 (natural protein, S. cerevisiae, UniProt O94742 1-89, looked up)
chain: MSTDVAAAQAQSKIDLTKKKNEEINKKSLEEDDEFEDFPIDTWANGETIKSNAVTQTNIWEENWDDVEVDDDFTNELKAELDRYKRENQ
notes: Sem1, S. cerevisiae; source: Sf9, baculovirus, co-expressed with GST-Sac3; in lysate and purified with the complex (glutathione Sepharose, heparin, SEC)
B4: Thp1 (natural protein, S. cerevisiae, UniProt Q08231 1-455, looked up)
chain: MDMANQLLDELAHGNFSHLTLNLSQNGREIAILQKQLTGFDDKQLETFVEQHPAMPNDTRFKIMCTSFLNYARDVDPWSAWSSSDLIFEFYQCLINCLINDNAPHIEMLIPVATRETEFIINLAGKLDSFHLQLHTRSHQFLSHISSILSRLFNSIKPPRGNASSTNIPGKQRILLYLVNKLNNIYFRIESPQLCSNIFKNFQPKSMLAHFNEYQLDQQIEYRYLLGRYYLLNSQVHNAFVQFNEAFQSLLNLPLTNQAITRNGTRILNYMIPTGLILGKMVKWGPLRPFLSQETIDNWSVLYKHVRYGNIQGVSLWLRQNERHLCARQLLIVLLEKLPMVTYRNLIKTVIKSWTTEWGQNKLPYSLIERVLQLSIGPTFEDPGAQEITIYNGIHSPKNVENVLVTLINLGLLRANCFPQLQLCVVKKTTMIQEIVPPVNERITKMFPAHSHVLW
notes: Thp1, S. cerevisiae; The theoretical mass of 195 kDa for TREX-2^1-805 fits whole chains of the four small subunits; source: Sf9, baculovirus, co-expressed with GST-Sac3; in lysate and purified with the complex (glutathione Sepharose, heparin, SEC)

Data on four molecules can be found in publication PMC4991852, “The Sac3 TPR-like region in the Saccharomyces cerevisiae TREX-2 complex is more extensive but independent of the CID region” (Journal of Structural Biology, 2016).

The target of this test is T1, Sac3 (residues 140-805) (S. cerevisiae, UniProt P46674 140-805).
T1 construct: Sac3, S. cerevisiae, residues 140-805 by the complex's name; the text says that residues 1-140 were deleted; also called Sac3 of TREX-2^140–805
T1 sequence (looked up): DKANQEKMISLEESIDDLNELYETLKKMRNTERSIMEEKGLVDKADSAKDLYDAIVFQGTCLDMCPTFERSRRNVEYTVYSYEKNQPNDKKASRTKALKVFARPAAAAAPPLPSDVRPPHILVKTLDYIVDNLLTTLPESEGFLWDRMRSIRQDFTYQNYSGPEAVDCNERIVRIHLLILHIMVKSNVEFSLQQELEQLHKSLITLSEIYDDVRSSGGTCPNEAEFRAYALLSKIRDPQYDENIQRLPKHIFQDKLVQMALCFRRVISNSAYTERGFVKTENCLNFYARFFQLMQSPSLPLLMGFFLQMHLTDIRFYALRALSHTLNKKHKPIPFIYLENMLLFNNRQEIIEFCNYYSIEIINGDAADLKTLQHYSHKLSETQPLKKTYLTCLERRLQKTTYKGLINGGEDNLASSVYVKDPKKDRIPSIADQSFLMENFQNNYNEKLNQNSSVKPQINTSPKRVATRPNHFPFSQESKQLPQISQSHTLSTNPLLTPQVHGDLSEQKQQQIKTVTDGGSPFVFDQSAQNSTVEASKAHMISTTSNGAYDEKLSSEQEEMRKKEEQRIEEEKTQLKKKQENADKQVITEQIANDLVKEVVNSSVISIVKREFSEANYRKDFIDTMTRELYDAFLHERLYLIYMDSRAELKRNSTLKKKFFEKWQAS
As to the kind of experiment: SEC-SAXS; on-line HPLC with Superdex 200 Increase 3.2/300, beamline BM29 (ESRF), 20 °C; mass from I(0) against a BSA standard. The note with it: both partners purified. On the technique in general: Size exclusion chromatography separates by hydrodynamic size, large species first.
B1: the binding result is “binds”.

Take B2: the binding result is “binds”.

Consider B3, for which the binding result is recorded as “binds”.

For B4, the binding result is given as “binds”.
